# From US20100004325
# Legend:
# [1] = molecular target: T1, B-P564 peptide (biotin-labeled HIF-1α 556-575 peptide)
# T1 chain: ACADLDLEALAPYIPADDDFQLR
# [2] = molecular target: T2, F-N803 peptide (FITC-labeled HIF-1α 788-822 peptide)
# T2 chain: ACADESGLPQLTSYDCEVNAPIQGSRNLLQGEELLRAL
Protein,"proline hydroxylation of the peptide, MALDI mass spectrometry [1]","asparagine hydroxylation of the peptide, MALDI mass spectrometry [2]"
"GST-PHD2 (human prolyl hydroxylase 2, amino acids 184-426) (protein) QTKPLPALKLALEYIVPCMNKHGICVVDDFLGKETGQQIGDEVRALHDTGKFTDGQLVSQKSDSSKDIRGDKITWIEGKEPGCETIGLLMSSMDDLIRHCNGKLGSYKINGRTKAMVACYPGNGTGYVRHVDNPNGDGRCVTCIYYLNKDWDAKVSGGILRIFPEGKAQFADIEPKFDRLLFFWSDRRNPHEVQPAYATRYAITVWYFDADERARAKVKYLTGEKGVRVELNKPSDSVGKDVF",The proline residue was hydroxylated in the baicalein-free reactant,–
"His-FIH1 (human factor inhibiting HIF1, amino acids 1-349) (protein) MAATAAEAVASGSGEPREEAGALGPAWDESQLRSYSFPTRPIPRLSQSDPRAEELIENEEPVVLTDTNLVYPALKWDLEYLQENIGNGDFSVYSASTHKFLYYDEKKMANFQNFKPRSNREEMKFHEFVEKLQDIQQRGGEERLYLQQTLNDTVGRKIVMDFLGFNWNWINKQQGKRGWGQLTSNLLLIGMEGNVTPAHYDEQQNFFAQIKGYKRCILFPPDQFECLYPYPVHHPCDRQSQVDFDNPDYERFPNFQNVVGYETVVGPGDVLYIPMYWWHHIESLLNGGITITVNFWYKGAPTPKRIEYPLKAHQKVAIMRNIEKMLGEALGNPQEVGPLLNTMIKGRYN",–,The asparagine residue was hydroxylated in the baicalein-free reactant
